Results as given in paper PMC6212398, “Competing protein-protein interactions regulate binding of Hsp27 to its client protein tau” (Nature Communications, 2018).

Tests used:
Hsp27 ΔNTD GPG (human) = Hsp27 ΔNTD GPG (human) (UniProt P04792); assay: ITC; peptide (1 mM) titrated into a cell with Hsp27 proteins (100 µM); SEC buffer (50 mM sodium phosphate, 100 mM NaCl); 25 °C; one-site binding model
[1] = target: Hsp27 GPG (isoleucine and valine of the IPV motif mutated to glycine) (human) (UniProt P04792); assay: as above

B1: Hsp27 IPV H peptide (…) (peptide)
peptide: EITIPVTHE
Hsp27 ΔNTD GPG (human)
  Kd: 14.3 µM
[1]
  Kd: 10 µM
  stoichiometry N: 0.2
